This data set concerns the molecule itself. As to the kind of experiment: native gel or EMSA; native-PAGE (10% acrylamide) of load, unbound, wash and elution fractions of DEAE Sephadex and DEAE Sepharose batch chromatography; 20 mM Tris-HCl, pH 7.0 to 9.0, 50 mM NaCl (1 M NaCl for elution), 4°C. (In general: Mobility shift assays separate free from complexed probe on a gel.)

B1: Helicobacter pylori neutrophil-activating protein (natural protein)
chain: MKTFEILKHLQADAIVLFMKVHNFHWNVKGTDFFNVHKATEEIYEEFADMFDDLAERIVQLGHHPLVTLSEAIKLTRVKEETKTSFHSKDIFKEILEDYKYLEKEFKELSNTAEKEGDKVTVTYADDQLAKLQKSIWMLQAHLA
notes: subunit of about 17 kDa on SDS-PAGE; No tag is named; its own experiments show only an oligomer; also called HP-NAP; recombinant HP-NAP; source: E. coli BL21(DE3), plasmid pET42a-NAP; copies: 12
For B1, the binding result is reported as “binds”.

Values taken from paper PMC4425898, “High yield purification of Helicobacter pylori neutrophil-activating protein overexpressed in Escherichia coli” (BMC Biotechnology, 2015).
